Assay results: US20190352418A1 (AGENUS, published 2019)
Positions count from the first letter of the chain named. In names and notes the source's numbering stands. Read-outs that look alike come from different tables or passages of the source.

Assays:
[1] = biological target: T1, recombinant human CD73 protein fused with a 6×His-tag (R&D Systems, 5795EN) (human, UniProt P21589 27-547); test: cell-based or functional assay
T1 sequence: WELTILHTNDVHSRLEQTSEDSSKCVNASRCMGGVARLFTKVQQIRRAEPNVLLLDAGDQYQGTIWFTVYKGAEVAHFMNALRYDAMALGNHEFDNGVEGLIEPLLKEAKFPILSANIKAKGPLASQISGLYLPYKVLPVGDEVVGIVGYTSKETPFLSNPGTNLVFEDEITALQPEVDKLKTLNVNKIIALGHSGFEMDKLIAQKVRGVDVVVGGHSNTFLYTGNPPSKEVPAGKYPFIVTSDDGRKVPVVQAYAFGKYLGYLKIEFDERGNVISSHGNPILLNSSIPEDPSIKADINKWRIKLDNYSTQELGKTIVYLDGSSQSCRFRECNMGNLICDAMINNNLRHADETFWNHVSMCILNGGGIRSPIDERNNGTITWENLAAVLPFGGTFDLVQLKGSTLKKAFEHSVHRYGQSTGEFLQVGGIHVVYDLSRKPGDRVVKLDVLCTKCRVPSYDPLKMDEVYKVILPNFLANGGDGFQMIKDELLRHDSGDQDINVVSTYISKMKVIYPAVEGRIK

cynomolgus CD73 on cells [2] = biological target: T2, cynomolgus CD73 on cells (cynomolgus, UniProt A0A2K5V5U7 27-549); test: flow cytometry, CHO cells expressing cynomolgus CD73, MFI vs antibody concentration
T2 construct: whole, on cells; also called full-length cynomolgus CD73 on CHO cells; CD73 on cynomolgus monkey CD8+ T cells
T2 sequence: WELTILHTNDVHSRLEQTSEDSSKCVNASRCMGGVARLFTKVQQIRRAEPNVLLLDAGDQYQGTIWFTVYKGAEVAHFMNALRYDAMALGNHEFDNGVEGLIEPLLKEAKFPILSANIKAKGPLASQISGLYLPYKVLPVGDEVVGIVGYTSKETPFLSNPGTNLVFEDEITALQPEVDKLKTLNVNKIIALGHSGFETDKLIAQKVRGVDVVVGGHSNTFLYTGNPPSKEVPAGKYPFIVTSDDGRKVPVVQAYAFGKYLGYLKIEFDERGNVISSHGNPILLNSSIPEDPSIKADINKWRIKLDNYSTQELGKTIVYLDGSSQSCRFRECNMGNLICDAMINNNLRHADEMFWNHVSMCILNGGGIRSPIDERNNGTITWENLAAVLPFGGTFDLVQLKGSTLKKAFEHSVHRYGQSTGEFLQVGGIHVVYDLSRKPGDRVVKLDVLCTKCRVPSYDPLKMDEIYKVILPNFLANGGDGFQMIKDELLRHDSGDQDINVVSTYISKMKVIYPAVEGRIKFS

cynomolgus CD73 on cells [3] = biological target: T2, cynomolgus CD73 on cells; test: flow cytometry, CHO cells expressing cynomolgus CD73 (panel CHO-cyCD73), MFI vs antibody concentration
Method: (§1) Briefly, Chinese hamster ovarian (CHO) cells were transduced with lentiviral vectors comprising a mouse, cynomolgus, or human CD73 coding sequence under the control of a CMV promoter, and stable CHO-CD73 cells were generated by antibiotic selection. Expression of CD73 was verified by flow cytometry using positive control antibodies. The stable CHO-CD73 cells were grown in suspension culture in RPMI media supplemented with 10% heat-inactivated FBS at 37° C. and 5% CO₂. […] The cells were then washed twice and analyzed using the LSRFortessa™ flow cytometer (BD Biosciences). FACS data were analyzed using FACS DIVA and WEHI Weasel software, and were plotted with Graphpad Prism software.

human CD73 on cells [4] = biological target: T3, human CD73 on cells (human, UniProt P21589 27-549); test: cell-based or functional assay
T3 sequence (looked up): T2 sequence with T199M, A350T, I466V

human CD73 on cells [5] = biological target: T3, human CD73 on cells; test: flow cytometry on CHO cells expressing human CD73; area under MFI curve
Method: as §1
(§2) The affinities of the humanized anti-CD73 antibodies to membrane-associated CD73 were determined. Specifically, CHO cells ectopically expressing full-length human or cynomolgus CD73 were generated, and the binding of the antibodies to the cells were examined, using the method as described in Example 6.1.3.

mouse CD73 on cells = biological target: T4, mouse CD73 on cells (mouse, UniProt Q61503 29-551); test: flow cytometry, CHO cells expressing mouse CD73 (panel CHO-muCD73), MFI vs antibody concentration
T4 construct: whole, on cells; also called full-length mouse CD73 on CHO cells (CHO-muCD73); CD73 on mouse CD8+ T cells
T4 sequence (looked up): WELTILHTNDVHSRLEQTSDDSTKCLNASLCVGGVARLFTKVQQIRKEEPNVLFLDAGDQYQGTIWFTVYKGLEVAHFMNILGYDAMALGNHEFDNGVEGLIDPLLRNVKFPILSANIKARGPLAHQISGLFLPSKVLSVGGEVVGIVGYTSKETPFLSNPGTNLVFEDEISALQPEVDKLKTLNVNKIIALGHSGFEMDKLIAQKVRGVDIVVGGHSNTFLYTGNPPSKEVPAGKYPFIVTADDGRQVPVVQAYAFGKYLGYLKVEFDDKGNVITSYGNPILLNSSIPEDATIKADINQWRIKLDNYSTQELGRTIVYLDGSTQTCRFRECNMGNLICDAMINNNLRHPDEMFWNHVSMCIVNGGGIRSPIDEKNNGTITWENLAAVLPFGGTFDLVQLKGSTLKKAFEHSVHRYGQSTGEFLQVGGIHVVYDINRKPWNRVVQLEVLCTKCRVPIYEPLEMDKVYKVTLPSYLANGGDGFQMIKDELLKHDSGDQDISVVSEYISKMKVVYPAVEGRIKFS
Method: as §1

[6] = biological target: T1, recombinant human CD73 protein fused …; test: SPR; antibody on Protein A chip, CD73-His as analyte
Method: (§3) The sensor chip was regenerated between cycles with a 30-sec injection of 10 mM glycine, pH 1.5. Sensograms were evaluated and fit to a simple Langmuir 1:1 interaction model using the global data analysis option of BiaEvaluation 3.1 software. Data quality was verified by visually inspecting deviations and curve fitting, and by evaluating the parameters of Rmax, Chi2, and Tc.

[7] = biological target: T5, recombinant cynomolgus CD73 protein fused with a 6×His-tag (Sino Biological, 90192-C08H) (cynomolgus, UniProt A0A2K5V5U7 27-547); test: as above
T5 sequence: T1 sequence with M199T, T353M, V466I
Method: as §3

human CD73 on cells [8] = biological target: T3, human CD73 on cells; test: cell-based or functional assay; remark: listed apart in the source
[9] = biological target: T1, recombinant human CD73 protein fused …; test: SPR; antibody on Protein A chip, CD73-His as analyte; remark: listed apart in the source
Method: as §3

[10] = biological target: T5, recombinant cynomolgus CD73 protein …; test: as above; remark: listed apart in the source
Method: as §3

[11] = biological target: T6, recombinant mouse CD73 protein fused with a 6×His-tag (R&D Systems, 4488EN) (mouse, UniProt Q61503 29-549, limits assumed); test: as above
T6 sequence (looked up): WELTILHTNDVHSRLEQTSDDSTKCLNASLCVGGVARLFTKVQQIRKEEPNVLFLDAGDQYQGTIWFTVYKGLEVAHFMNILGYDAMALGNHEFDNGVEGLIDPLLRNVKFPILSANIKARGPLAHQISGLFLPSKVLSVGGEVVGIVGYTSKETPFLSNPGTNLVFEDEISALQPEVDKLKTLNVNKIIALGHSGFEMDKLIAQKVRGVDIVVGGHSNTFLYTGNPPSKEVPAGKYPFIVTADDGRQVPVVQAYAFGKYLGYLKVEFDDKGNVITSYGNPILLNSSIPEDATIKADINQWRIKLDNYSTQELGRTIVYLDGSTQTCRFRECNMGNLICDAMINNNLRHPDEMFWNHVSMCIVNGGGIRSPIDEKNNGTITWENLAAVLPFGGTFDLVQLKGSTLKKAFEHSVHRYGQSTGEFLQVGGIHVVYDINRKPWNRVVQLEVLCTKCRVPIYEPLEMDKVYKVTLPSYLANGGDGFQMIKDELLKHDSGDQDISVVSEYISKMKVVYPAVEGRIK
Method: as §3

human CD73 on cells [12] = biological target: T3, human CD73 on cells; test: flow cytometry, CHO cells expressing human CD73 (panel CHO-huCD73), MFI vs antibody concentration
Method: as §1

human CD73 on cells [13] = biological target: T3, human CD73 on cells; test: flow cytometry, CHO cells expressing human CD73, MFI vs antibody concentration
cynomolgus CD73 on cells [14] = biological target: T2, cynomolgus CD73 on cells; test: flow cytometry on CHO cells expressing cynomolgus CD73; area under MFI curve
Method: as §1, §2

B1: BA015 (antibody, human IgG1, kappa, N297A)
heavy: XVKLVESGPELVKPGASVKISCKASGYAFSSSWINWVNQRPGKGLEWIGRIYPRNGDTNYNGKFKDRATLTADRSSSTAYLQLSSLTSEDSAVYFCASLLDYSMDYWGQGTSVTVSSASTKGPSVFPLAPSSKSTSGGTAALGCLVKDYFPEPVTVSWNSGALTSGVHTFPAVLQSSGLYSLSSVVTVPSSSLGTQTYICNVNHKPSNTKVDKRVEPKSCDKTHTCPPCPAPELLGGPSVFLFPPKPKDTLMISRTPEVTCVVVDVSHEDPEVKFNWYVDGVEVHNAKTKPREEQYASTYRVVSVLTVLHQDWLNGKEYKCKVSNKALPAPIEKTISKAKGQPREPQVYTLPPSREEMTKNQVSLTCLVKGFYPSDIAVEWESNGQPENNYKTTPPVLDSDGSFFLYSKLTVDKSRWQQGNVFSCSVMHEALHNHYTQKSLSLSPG
light: DIQMTQSTSSLSASLGDRVTISCRASQDISNYLNWYQQKPDGTVKLLIYYTSRLHSGVPSRFSGSGSGTDYSLTISNLEQEDIATYFCQQGNTLPLTFGAGTKLELKRTVAAPSVFIFPPSDEQLKSGTASVVCLLNNFYPREAKVQWKVDNALQSGNSQESVTEQDSKDSTYSLSSTLTLSKADYEKHKVYACEVTHQGLSSPVTKSFNRGEC
modifications: X at position 1 is E or pyroglutamate
notes: chimeric: BA012 murine variable regions, human IgG1 N297A and human Igκ constant regions
- AUC, enzymatic activity of immobilized recombinant human CD73 (FIGS. 7B-7P) [1]: 91.2
- EC50 (read off the curve) (cynomolgus CD73 on cells [2]): ~0.2 µg/mL
- EC50 (read off the curve) (cynomolgus CD73 on cells [3]): ~0.5 µg/mL
- AUC, CD73 enzymatic activity on Jurkat cells expressing human CD73 (FIG. 2A) (human CD73 on cells [4]): 239
- AUC (human CD73 on cells [5]): 113000
- EC50 (read off the curve) (mouse CD73 on cells): ~0.4 µg/mL
- Kd [6]: 0.088 nM
- koff [6]: 0.0002 s⁻¹
- kon [6]: 2.27e+06 M⁻¹ s⁻¹
- Kd [7]: 0.07 nM
- koff [7]: 8.3e-05 s⁻¹
- kon [7]: 1.14e+06 M⁻¹ s⁻¹
- AUC, CD73 enzymatic activity on Jurkat cells expressing human CD73 (FIGS. 6B-6P) (human CD73 on cells [8]): 328
- Kd [9]: 0.015 nM
- koff [9]: 0.00041 s⁻¹
- kon [9]: 2.8e+07 M⁻¹ s⁻¹
- Kd [10]: 0.3 nM
- koff [10]: 8.7e-05 s⁻¹
- kon [10]: 310000 M⁻¹ s⁻¹
- Kd [11]: 10 nM
- koff [11]: 0.0006 s⁻¹
- kon [11]: 61000 M⁻¹ s⁻¹
- EC50 (read off the curve) (human CD73 on cells [12]): ~0.2 µg/mL
- EC50 (read off the curve) (human CD73 on cells [13]): ~0.1 µg/mL
- AUC (cynomolgus CD73 on cells [14]): 2440
